Data: US6699662B1, “Inhibitors of staphylococcus SarA protein function involved in the expression of staphylococcal virulence factors and the use thereof in treating staphylococcal infections” (priority 1999, dated 2004)

Test system: P2-P3 promoter region
Experiment: DNase I footprinting of SarA binding to the agr regulatory region
Parameters: species or system Staphylococcus aureus
Details: 40 pM 32P-labeled DNA; regions A1, A2, B1, B2, C1, C2
Description: To test this notion and identify binding sites for SarA in this region, DNase I footprinting was perfomred with the purified SarA. […] The data were quantified by phosphorimaging.
SarA was allowed to bind to the DNA in a reaction mixture containing 40 pM of ^32P-labeled DNA, 10 mM Hepes (pH 7.6), 5 mM MgCl2, 1 mM CaCl2, 1 mM DTT, and 100 mM KCl at room temperature for 30 minutes. An amount of DNase I, which produced approximately 50% non-nicked DNA, was added to the reaction mixture and incubated for 2 minutes. The reaction was quenched by addition of stop solution (80% EtOH, tRNA (1 ug/ml), 0.3 M NH4OAc) and immediately put into a dry ice/EtOH bath for 30 minutes. A visible pellet was obtained after centrifugation and washed with 70% ethanol. Following denaturing gel electrophoresis, the DNA fragments were detected and quantified by phosphoimaging. The radioactivity in the bands for samples containing SarA was subtracted from the no protein control using Microsoft Excel. The concentration of SarA required to protect a cleavage site fully was determined. To identify the regions of protection within the inter-promoter region, purine sequencing was included in the analysis. Chemical sequencing was done according to standard procedures.

B1: SarA: purified full-length recombinant S. aureus (strain DB) SarA protein expressed in E. coli (protein)
chain: AITKINDCFELLSMVTYADKLKSLIKKEFSSISFEEFAVLTYISENKEKEYYLKDIINHLNYKQPQVVKAVKILSQEDYDKKRNEHDERTVLILVNAQQRKKIESLLSRVNKRITEANNEIEL
SarA concentration at which the footprinted regions were protected by more than 50%: 3 to 6 pM
